Assay results taken from article PMC7188400 (mAbs, 2020).
Each block holds one binder with its values, some of them ahead of it.

Tests used:
[1] = target: human BDNF (Sino Biological Inc., Catalog 50240-MNAS) (Homo sapiens, UniProt P23560); test: SPR
[2] = target: human BDNF (KinExA; supplier not stated) (Homo sapiens, UniProt P23560); test: kinetic exclusion assay
Sequence of human BDNF (KinExA; supplier not stated) (P23560 129-247): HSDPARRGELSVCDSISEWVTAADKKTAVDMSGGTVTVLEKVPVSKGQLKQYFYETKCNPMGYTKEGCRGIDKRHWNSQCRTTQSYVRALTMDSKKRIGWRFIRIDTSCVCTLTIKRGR

Sequence of human BDNF (Sino Biological Inc., Catalog 50240-MNAS) (P23560 129-247): as above

Kd [1]: 34.4 ± 5.43 nM
B1: R3bH01, parental chimeric chicken-human IgG1 anti-BDNF antibody (antibody, V domains shown)
VH: AVTLDESGGGLQTPGGGLSLVCKASGFDFSSYDMHWVRQAPGKGLEWVAGIDDGGSDTYYGSAVKGRATISRDNGQSTVRLQLNNLRAEDTGTYYCAKSSYDISWNGHVENIDAWGHGTEVIVSS
VL: ALTQPTSVSTNLGGTVEITCSGAGSGYGYGWFQQKSPGSAPVTVIYSNDKRPSDIPSRFSGSKSGSTGTLTITGVQAEDEAVYFCGTYDSTDAGYAIFGAGTTLTVL

Kd [1]: 0.12 ± 0.01 nM
B2: B30, humanized and affinity-optimized anti-BDNF IgG1 (antibody, V domains shown)
VH: not shown
VL: SSELTQPPAVSVALGQTVRITCSGAGSGYGYGWYQQKPGQAPVTVIYSNDKRPSGIPDRFSGSSSGNTASLTITGAQAEDEADYYCGTYVSAYYGYAIFGGGTKLTVL

Kd [2]: 0.00106 nM
B3: B30 Fab (Fab, V domains shown)
VH: not shown
VL: B2 VL
